In patent US20090209457A1, “TREATMENT OF ANTI-ERYTHROPOIETIN ANTIBODY-MEDIATED DISORDERS WITH SYNTHETIC PEPTIDE-BASED EPO RECEPTOR AGONISTS” (Affymax, Inc., priority 2008, published 2009) one finds clearance times, half-life and EC90 data, which are given here for one substance.

Bridge positions count the residues as written; N and C are the ends. Square brackets hold non-standard residues; d marks the D form. Ends that are not written are not given here. 1Nal = N[C@@H](Cc1cccc2ccccc12)C(=O)O; Sar = CNCC(=O)O

Usually EC90 stands for the concentration needed for an effect of 90%.

For data set [1] the following is noted: in vivo; cited from earlier work.
Data set [2] relates to human, bone marrow derived CD34+ cells. Kind of data set: C/BFU-e assay (erythroid colonies). The class given is cell-based. The settings on record: Table 6, 14 days. The protocol:
EPO-R signaling stimulates the differentiation of bone marrow stem cells into proliferating red blood cell precursors. This assay measures the ability of test peptides to stimulate the proliferation and differentiation of red blood cell precursors from primary human bone marrow pluripotent stem cells.
For this assay, serial dilutions of test peptide are made in IMDM medium (Gibco) supplemented with 10% FBS (Hyclone). These serial dilutions, or positive control EPO peptide, are then added to methylcellulose to give a final volume of 1.5 mL. The methylcellulose and peptide mixture is then vortexed thoroughly. Aliquots (100,000 cells/mL) of human, bone marrow derived CD34+ cells (Poietics/Cambrex) are thawed. The thawed cells are gently added to 0.1 mL of 1 mg/ml DNAse (Stem Cells) in a 50 mL tube. Next, 40-50 mL IMDM medium is added gently to cells: the medium is added drop by drop along the side of the 50 mL tube for the first 10 mL, and then the remaining volume of medium is slowly dispensed along the side of the tube. The cells are then spun at 900 rpm for 20 min, and the media removed carefully by gentle aspiration. The cells are resuspended in 1 ml of IMDM medium and the cell density per mL is counted on hemacytometer slide (10 μL aliquot of cell suspension on slide, and cell density is the average count×10,000 cells/ml). The cells are then diluted in IMDM medium to a cell density of 15,000 cells/mL. A 100 μL of diluted cells is then added to each 1.5 mL methyl cellulose plus peptide sample (final cell concentration in assay media is 1000 cells/mL), and the mixture is vortexed. Allow the bubbles in the mixture to disappear, and then aspirate 1 mL using blunt-end needle. Add 0.25 mL aspirated mixture from each sample into each of 4 wells of a 24-well plate (Falcon brand). Incubate the plated mixtures at 37° C. under 5% CO2 in a humid incubator for 14 days. Score for the presence of erythroid colonies using a phase microscope (5×-10× objective, final magnification of 100×). The concentration of test peptide at which the number of formed colonies is 90% of maximum, relative to that observed with the EPO positive control, is recorded as the EC90 [See Table 2: C/BFU-e EC90].
For this assay, serial dilutions of test peptide are made in IMDM medium (Gibco) supplemented with 10% FBS (Hyclone). These serial dilutions, or positive control EPO peptide, are then added to methylcellulose to give a final volume of 1.5mL. The methylcellulose and peptide mixture is then vortexed thoroughly. […] The cells are resuspended in 1 ml of IMDM medium and the cell density per mL is counted on hemacytometer slide (10 μL aliquot of cell suspension on slide, and cell density is the average count×10,000 cells/ml). […]

Turning to “PEGylated homodimer of peptide monomers (AcG)GLYACHMGPIT(1-nal)VCQPLR(MeG)K (SEQ ID NO: 2), EPO-R agonist (Ac-GGLYACHMGPIT[1Nal]VCQPLR[Sar]K; disulfide 6-15 (inferred); not fully specified (residue 21); printed as (AcG)GLYACHMGPIT(1-nal)VCQPLR(MeG)K; also: PEGylated) [Peptide I]”, in data set [1], the clearance times result is “slow” and the half-life result is recorded as “prolonged”. In data set [2], this substance had an EC90 of 3 nM.
